Where no end group is shown, it is not given here.
Legend:
[1] = biological target: T1, SARS-CoV-2 RBD (High Five insect cells, 6x His-tag) (SARS-CoV-2, UniProt P0DTC2); assay: SPR; conditions: both partners purified
T1 construct: source: High Five insect cells, purified (HisExcel, SEC)

[2] = biological target: T2, SARS-CoV-2 S1S2-His (monomeric S1S2 spike protein) (SARS-CoV-2, UniProt P0DTC2 14-1213); assay: SPR; conditions: both partners purified
T2 construct: source: High Five insect cells, purified (HisExcel, SEC)

B1: CVRBDL-3 (peptide)
peptide: HDFWWEYDKKNDTWTRRRR-NH2
notes: also called CVRDBL-3; CVRBD-3; source: synthetic peptide; bought: CASLO
With B1 the “stoichiometry N” value [1] was 1 and the “stoichiometry N” value [2] was 1.
